This data set is described as follows: yeast display, Sf9 membrane polyspecificity reagent, FACS + sequencing; frameworks hold sequencing errors. In a few lines:
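Genes from sorted yeast were amplified by colony PCR, read by MiSeq 2 × 250 sequencing and filtered on CDR length. These cells carried a synthetic nanobody library in Saccharomyces cerevisiae BJ5465 and were sorted by FACS into low and high (top ~1%) gates on anti-HA and streptavidin fluorescence. Polyreactivity is labelled according to the gate of origin.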
Consider “QVQLVESGGGLVQAGGSLRLSCAASGRTFRFNAMGWYRQAPGKERELVAAISSRGGNTYYADSVKGRFTISRDNAKNTVYLQMNSLKPVDTSVYYCNKDLNYWGYAKYYGYYYWGQGTQVTVSS”, for which the “polyreactivity (PSR sort gate)” value is given as “high polyreactivity”.

For the sequence “QVQLVESGGGLVQAGGSLRLSCAASGRILAGYTMGWYRQAPGKERELVAAISDRGGSTYYADSVKGRFTISRDNAKNTVYLQMNSLKPEDTAVYYCNAVVYSYALTPSYAGDYWGQGTQVTVSS”, the “polyreactivity (PSR sort gate)” value is “low polyreactivity”.

Turning to “QDQLVESGGGLVQAGGSLRLSCAASGSTFGFYAMGWYRQAPGKERELVAAITTGGSTNYADSVKGRFTISRDNAKNTVYLQMNSLKPEDTAVYYCNADVYWNPYYDYDYWGQGTQVTVSS”, the “polyreactivity (PSR sort gate)” value is recorded as “high polyreactivity”.

Turning to “QVQLVESGGGLVQAGGSLRLSCAASGRIFGYYGMGWYRQAPGKERELVAGITSSGGSTYYADSVKGRFTISRDNAKNTVYLQMNSLKPEDTAVYYCNVRRYGSRFDYWGQGTQVTVSS”, the “polyreactivity (PSR sort gate)” value is “high polyreactivity”.

As for “QVQLVESGGGLVQAGGSLRLSCAASGRTFFYYTMGWYRQAPGKERELVAAITYSGTSTYYADSVKGRFTISRDNAKNTVYLQMNSLKPEDTAVYYCAADWYVTHQGYTSGIWYVEYDYWGQGTQVTVSS”, the “polyreactivity (PSR sort gate)” value is on record as “low polyreactivity”.

For “QVQLVESGRGLVQAGGSLRLSCAASGRTFYSNTMGWSRQAPGKERELVAVISNGGSTYYADSVKGRFTISRDNAKYTVYLQMNSLKPEETAVYYCAARSRDRYRGNYWGQGTQVTVSS”, the “polyreactivity (PSR sort gate)” value is “high polyreactivity”.

As to “QVQLVESGGGLVQAGGSLRLSCAASGSIFGYYVMGWYRQAPGKERELVAAITRSGSTYYADSVKGRFTISRDNAKNTVYLQMNSLKPEDTAVYYCAADGSYYWYPHTTYDYWGQGTQVTVSS”, the “polyreactivity (PSR sort gate)” value is “low polyreactivity”.

For the sequence “QVQLVESGGGLVQAGGSLRLSCAASGNIFWWNAMGWYREATRKERELVAAITSDSTTYYADSVKGRFTISRDNAKNTVYLQMKSLKPEDTAVYYCAAYSYGGQGVDYGYWGQGTQVTVSS”, the “polyreactivity (PSR sort gate)” value was “low polyreactivity”.

Turning to “QVQLVESGGGLVQAGGSLRLSCAASGSTISFYAMGWYRQAPGKERELVAAISFRGGRTYYADSVKGRFTISRDNAKNTVYLQMYSLKPEDTAVYYCAAVWYYGHARYDYWGQGTQVTVSS”, the “polyreactivity (PSR sort gate)” value is listed as “high polyreactivity”.

With “QVHLVESGGGLVQAGGSLRLSCAASGRIFSSNAMGWYRQAPGKERELVAAISWIVGRTYYADSVKGRFTISRDNAKNTVYLQMNRLKPEDTAVYYCAKGSYYGRKRGWGYYYWGQGTQVTVSS”, the “polyreactivity (PSR sort gate)” value is “high polyreactivity”.

Turning to “QVQLVESGGGLVQAGGSLRLSCAASGFIFWYNAMGWYRQAPGKERELVATISVASTYADSVKGRFTISRDNAKNTVYLQMNSLKPEDTAVYYCAADWAGWEGYRMDYWGQGTQVTVSS”, the “polyreactivity (PSR sort gate)” value is “low polyreactivity”.

For the sequence “QVQLVESGGGLVQAGGSLRLSCAASGRIFVTNAMGWYRQAPGKERELVAAITRGGSTNYADSVKGRFTISRDNAKNTVYLQMNSLKPEDTAVYYCAAKRRYYGPWSRIGYDYWGHGTQVTVSS”, the “polyreactivity (PSR sort gate)” value is on record as “low polyreactivity”.

Turning to “QVQLVEAGGGLVQSGGSLRLSCAASGSIFNIYAMGWSRQAAGKDRELVAVISSRGGRSYYADSVKGRFTISRDNAKNTVYLQMTSLKPEDTAVYYCAAGYLRQGYRGYDYWGQGTQVTVSS”, the “polyreactivity (PSR sort gate)” value is given as “high polyreactivity”.

For “QVQLVESGGGLVQAGGSLRLSCAASGSTLISYAMGSYRQAPGKERELDAAITYNGGTTHYADSVKGRLTISRDNAKNSVYLQLKSLKPEDTAVYYCAKAQGHVRVSRGLQGGRYDYWGQGTQVTVSS”, the “polyreactivity (PSR sort gate)” value was “low polyreactivity”.

On to “QVQLVESGGGLVQAGGSLRLSCAASGSIFGYYAMGWYRQAPGKERELVAVIRRSSGSTYYADSVKGRITISRDNAKKTVYLQMNSLKPEDTAVFYCASRRYEPIIWHSMDYWGQGTQVTVSS”, for which the “polyreactivity (PSR sort gate)” value was “low polyreactivity”.

For “QVQLVESGGGLVQAGGSLRVSCAASGSIFGYYAMGWSRQAPGKERELVAGINWSGGSTYADSVKGRFTISRDNAKNTVYLKMNSLKPEDTAVYYCYLRYRKYSSAKYDYWGQGTQVTVSS”, the “polyreactivity (PSR sort gate)” value is listed as “high polyreactivity”.

Regarding “QVQLVESGGGLFQAGGSLRLSCAPSGSIFTTYAMGWYRQAPGKERELVAAITDTCSTNYADSVKGRFTISRDNAKNTVYLQMNSLKPEDTAVYYCAVDLGYEYDWGQGTEVTVSS”, the “polyreactivity (PSR sort gate)” value is on record as “low polyreactivity”.

Regarding “QDQIVESGGGLVQAGGSLRLSCAASGSIIWGNALGWYSQAPGKERELVAAISWGGGRTYYADSVKGRFTLSRDNAKNTVYLQMNSLKPEDTAVYYCNTRYPYVVSTGYDYWGQGTQVTVSS”, the “polyreactivity (PSR sort gate)” value is listed as “high polyreactivity”.

In the case of “QVQLVESGGGLVHAGGSLRLSCAASGRTFVSYAMGWYRQAPGKERELVAAITNAGSTYYADSVKGRFTISRDNAKNTVYLQMNSLKPEDTAVYYCAATYWDYWGYGYDYWGQGTQVTVSS”, the “polyreactivity (PSR sort gate)” value was “high polyreactivity”.

For “QVQLVESGGGLVQAGGSLRLSCAASGNTFFPYTMGWYRQAPGKERELVAAITWSGVSTYYADSVKGRFTISRDNAKNTVYLQMNSLKPEDTAVYYCAAGPGYVRYPRSGVWYVTLYDYWGQGTQVTVSS”, the “polyreactivity (PSR sort gate)” value is given as “high polyreactivity”.

As for “QVQLVESGGGLVQAGGSLRLICAASGRIFLGYAMGWYRQAPGKERELVARITLIGGGTNYADSVKGRFTISRDNAKNTVYLQMNSLKPVDTAVYYCAAKSPLRPWWVGAVSGNYWGQGTQVTVSS”, the “polyreactivity (PSR sort gate)” value is “low polyreactivity”.

For “QVQLVESGGGLVQAGGSLRLSCAASGSTFDWYAMGWYRQAPGKERELVAAISRGSRTYYADSVKGRFTISRDNAKNTVYLQKNSLKPEDTAVYYCARDKPTSYPDYYYWGQGTQVTVSS”, the “polyreactivity (PSR sort gate)” value is reported as “high polyreactivity”.

For “QVHLVESGGCLVQAGGTLRLSCAASGFTYKWYAMGWYRQAPGKERELVATITIGGRTNYADSVKGRFTISRDNAKNTVYLQMNSLKTEETAVYYCATYFVGLRLSDYDYWGQGTQVTVSS”, the “polyreactivity (PSR sort gate)” value is on record as “low polyreactivity”.

For “QVQLVESGGGLVQAGGSLRLSCPASGFTFVTNAMGWYRQAPGKERELVAAISKSGDRTYYADSVKGRFTISRDNAKNTVYLQMNSLKPEDTAVYYCAAGNSNWGQGTQVTVSS”, the “polyreactivity (PSR sort gate)” value is “high polyreactivity”.

In the case of “QVQLVESGGGLVQAGGSLRLSCAASGRTFAYYAMGWYRQAPGKERELVAAIRRSGRTNYADSVKGRFTISRDNAKNTVYLQMNSLKQEDTAVYYCAADYWQGDLRYDYWGQGTQVTVSS”, the “polyreactivity (PSR sort gate)” value was “low polyreactivity”.

Turning to “QVQLVESGGGLVQAGGSLRLSCAASGRIFQLYAMGWYRLAPGKERELVAVISSGDRTYYADSVKGRFTISRDNAKNTVYLQMNSLKPEDTAVYYCAALGWHSGGSRWHGEYDYWGQGTQVTVSS”, the “polyreactivity (PSR sort gate)” value is “low polyreactivity”.

As for “QVQLVESGGGLVQAGGSLRLSCAASGIIFLWYAMGWYRQAPGKERELVAAITSGGSTYYADSVKGRFTISRDNAKNTVYLQMNSLKPEDTAVYYCAAVNGWRRVKRFDYWGQGTQVTVSS”, the “polyreactivity (PSR sort gate)” value is listed as “high polyreactivity”.

With “QVQLVESGGGLVQAGGSLRLSCASSGRIFGSYAMGWYRQAPGKERELVAAISWRGTSTYYADSVKGRFTISRDNAKNTVYLQMNSLKPEDTAVYYCAARGLWPYDYWGQGTQVTVSS”, the “polyreactivity (PSR sort gate)” value is listed as “low polyreactivity”.

For the sequence “QVQLVESGGGLVQAGGSLRLSCAASGRNFYVYGLGWYRQAPGKERELVASITYRGGSTSYADSVKGRFTISRDNAKNTVYLQMNSLKPEDTAVYYCNADTYYRYDYWGQGTQVTVSS”, the “polyreactivity (PSR sort gate)” value was “high polyreactivity”.

Turning to “QVQLVESGGGLVQAGGSLRLSCAASGFTFGENAMGWYRQAPGKERELVATISDSGDSTYYADSVKGRFTISRDNAKNTVYLQMNSLKPEDTAVYYCAAPLPHRGYDEGYWGQGTQVTVSS”, the “polyreactivity (PSR sort gate)” value is given as “low polyreactivity”.

For the origin of these results see the nanobody polyreactivity screen of Harvey et al. (2022).
